This note sets out measurements from patent US20190367631A1 (Regeneron, published 2019).

In test [1] the target is T1, human MSR1 extracellular domain expressed with a N-terminal nonahistidine tag (His9-hMSR1); R&D Systems, Cat … (human, UniProt P21757 77-451).
T1 construct: extracellular domain; Bought reagent; also called His-hMSR1; 9xHis-hMSR1
T1 sequence: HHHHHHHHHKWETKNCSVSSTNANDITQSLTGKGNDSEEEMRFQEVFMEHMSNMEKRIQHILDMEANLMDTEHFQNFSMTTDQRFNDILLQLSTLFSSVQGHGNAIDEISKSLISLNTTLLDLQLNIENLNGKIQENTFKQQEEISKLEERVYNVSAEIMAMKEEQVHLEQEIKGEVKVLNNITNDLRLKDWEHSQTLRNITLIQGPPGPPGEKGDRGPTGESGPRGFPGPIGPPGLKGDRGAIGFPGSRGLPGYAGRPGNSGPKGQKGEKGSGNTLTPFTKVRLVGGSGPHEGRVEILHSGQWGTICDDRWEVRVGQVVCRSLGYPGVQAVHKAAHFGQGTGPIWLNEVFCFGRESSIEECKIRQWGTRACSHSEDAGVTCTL
Kind of test: SPR Biacore T200, 25 C, antibody captured by anti-human Fc, His9-hMSR1 injected.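 Also: running buffer HBS-ET pH 7.4, rates from sensorgrams fitted to a 1:1 model including mass transport limitation, KD and half-life derived from the kinetic constants.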
Method: All binding studies were performed in 10 mM HEPES, 300 mM NaCl, 3 mM EDTA, and 0.05% v/v Surfactant Tween-20, pH 7.4 (HBS-ET) running buffer at 25° C.
The association rate (kₐ) and dissociation rate (kd) were determined by fitting the real-time binding sensorgrams to a 1:1 binding model with mass transport limitation using Scrubber 2.0c curve-fitting software. Binding dissociation equilibrium constant (KD) and dissociative half-life (t½) were calculated from the kinetic rates as:

The target in test [2] is T2, full length human MSR1 with a C-terminal Myc tag, on HEK293.Myc.hMSR1 cells (human, UniProt P21757 1-451).
T2 sequence (looked up): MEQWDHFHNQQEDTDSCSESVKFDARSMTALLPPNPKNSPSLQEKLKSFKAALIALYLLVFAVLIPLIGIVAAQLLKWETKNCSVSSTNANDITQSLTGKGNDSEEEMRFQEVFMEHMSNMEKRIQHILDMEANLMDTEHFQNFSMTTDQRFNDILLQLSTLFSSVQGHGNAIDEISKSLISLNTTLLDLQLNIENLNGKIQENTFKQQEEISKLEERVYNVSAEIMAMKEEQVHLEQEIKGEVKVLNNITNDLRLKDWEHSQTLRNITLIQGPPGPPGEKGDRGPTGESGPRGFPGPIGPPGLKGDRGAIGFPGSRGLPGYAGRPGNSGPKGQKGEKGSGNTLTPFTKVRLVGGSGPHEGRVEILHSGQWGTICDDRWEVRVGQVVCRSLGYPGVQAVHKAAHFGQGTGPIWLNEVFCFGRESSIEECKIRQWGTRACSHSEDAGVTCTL
Kind of test: cell-based or functional assay.

Where only a bound is given, the exact number is not on record here.

For orientation: Kd means a measure of binding affinity in units of concentration. By koff is commonly meant a measure of how fast the partners let go of each other. The low end stands for slow dissociation, the high end for fast dissociation. In general, kon refers to the rate constant with which the complex forms. Low readings indicate slow association, high ones fast association. Usually t½ stands for how long it takes for the measured level to halve. Read a high t½ as slow loss.

B1: H1xH29282P2 (antibody, V domains shown)
VH: EVQLVESGGGLVQPGGSLRLSCAASGFTFSTYAMSWVRQAPGKGLEWVSTISGRSDITYFADSVKGRFTVSRDNSKTTLYLQMNSLRAEDTAVYYCATDDDLPLDYWGQGTLVTVSS
VL: not shown
notes: the prefix H1xH is not explained; captured by anti-human Fc
For B1, in test [1], the affinity, expressed as Kd, was 43.7 nM; the koff turned out to be 0.00362 s⁻¹; the kon was 82800 M⁻¹ s⁻¹; the t½ came to 3.2 min.

B2: H2aM21227N (antibody, mouse IgG2a, V domains shown)
VH: QVQLVQSGAEVKKPGASVKVSCKVSGYTLTELSIHWVRQVPGKGLEWMGGFDPEEGETIFAQEFRDRVTLTEDTSPDTAYMELSSLKSEDAAVYYCTTPRYCNNGICYDYWGQGTLVTVSS
VL: DIQMTQSPSSLSASVGDRVTITCRASQSISNYLNWYQQKPGKAPKLLIYTASSLQSGVPSRFSGSGSGTDFTLTISSLQTEDFATYYCQQSYSNFPITFGQGTRLEIKR
Consider B2, for which, in test [2], the “% Inhibition of Dil-Acetylated LDL uptake” value came to 62%, the “% Inhibition of Dil-Oxidized LDL uptake” value worked out at 90%, the “IC50 of Dil-Acetylated LDL uptake inhibition” value was found to be 3.7 nM and the “IC50 of Dil-Oxidized LDL uptake inhibition” value was 3.1 nM.

B3: H1M21231N (antibody, V domains shown)
VH: EVQLVESGGGLVQPGGSLRLSCAASGFTFSDHYMDWVRQAPGKGLEWVGRTRNKANSHTTEYTASVTGRFTISRDDSRNSLYLQMNSLKTEDTAVYYCVRAGIIGTLFDYWGQGTLVTVSS
VL: DIQMTQFPSSLSASVGDRVTITCRASQSISSFLNWFQQKPGKAPKFLIYAASSLQSGVPSRFSGSGSGTDFTLTISSLQPEDFATYYCQQSYSSPPITFGQGTRLEIKR
B3: in test [2], the “% Inhibition of Dil-Acetylated LDL uptake” value was determined as 50%, the “% Inhibition of Dil-Oxidized LDL uptake” value stood at 79%, the “IC50 of Dil-Acetylated LDL uptake inhibition” value is greater than 20 nM and the “IC50 of Dil-Oxidized LDL uptake inhibition” value is 3.7 nM.

B4: H1xH29273P2 (antibody, V domains shown)
VH: QVQLVESGGGVVQSGRSLRLSCAAAGFTFSNYGMHWVRQAPGKGLEWVALMSFDGSDKYYADSVKGRFTISRDNSKNTLYLQMNSLRAEDTALYYCAKGYDFWSGYWDYWGQGTLVTVSS
VL: not shown
notes: as for B1
In test [1], B4 registered a Kd of 93 nM, a koff of 0.00763 s⁻¹, a kon of 82000 M⁻¹ s⁻¹ and a t½ of 1.5 min.

B5: H1H27762P-N297Q (antibody, human IgG1, V domains shown)
VH: QVQLVQSGAEVKKPGSSVKVSCKASGGTFSRYDISWVRQAPGQGLEWMGGIIPIFGTSNYAQKFQGRVTITTDESTSTVYMELSSLRSEDTAVYYCARGGRYGWFDPWGQGTLVTVSS
VL: not shown
notes: human IgG1 Fc with N297Q (EU); also called H1H27762P2-N297Q
As for B5, in test [1], binding was put at a Kd of 1.38 nM, the koff was determined as 0.00056 s⁻¹, the kon came out at 405000 M⁻¹ s⁻¹ and the t½ stood at 20.6 min.

B6: H1H27762P-N297Q-LP1 (antibody, human IgG1, V domains shown)
VH: QVQLVQSGAEVKKPGSSVKVSCKASGGTFSRYDISWVRQAPGQGLEWMGGIIPIFGTSNYAQKFQGRVTITTDESTSTVYMELSSLRSEDTAVYYCARGGRYGWFDPWGQGTLVTVSS
VL: not shown
modifications: LXR agonist linker-payload LP1 clicked to azido-PEG3-amine on Q295 and Q297 (EU) of the heavy chain constant region
notes: antibody-drug conjugate; human IgG1 Fc with N297Q (EU); also called H1H27762P2-LP1
In the case of B6, in test [1], the Kd is 1.29 nM, the koff was determined as 0.000623 s⁻¹, the on-rate constant (kon) was 483000 M⁻¹ s⁻¹ and the t½ turned out to be 18.5 min.

B7: H1xH29283P2 (antibody, V domains shown)
VH: QVQLVQSGTEVKKPGSSVKVSCKASGGTFSRYTFSWVRQAPGQGLEWMGGIIPIFGTTNYAQKFQGRVTITTDESTSTVYMELSSLRSEDTAVYYCTRGGRYGWFDPWGQGTLVTVSS
VL: not shown
notes: as for B1
In test [1], B7 came in with a Kd of 13.4 nM, a koff of 0.00185 s⁻¹, a kon of 139000 M⁻¹ s⁻¹ and a t½ of 6.2 min.

B8: H1H27766P-N297Q-LP1 (antibody, human IgG1, V domains shown)
VH: EVQLVESGGGLVQPGGSLRLSCAASGFTFSSFAMSWVRQAPGKELEWVSSISGRGGSTYYADSVRGRFTISRDNSKITLYLQMNSLRAEDTAVYYCAKDIVFRYTSSAYWYFDLWGRGTLVTVSS
VL: not shown
modifications: LXR agonist linker-payload LP1 clicked to azido-PEG3-amine on Q295 and Q297 (EU) of the heavy chain constant region
notes: antibody-drug conjugate; human IgG1 Fc with N297Q (EU); also called H1H27766P2-LP1
In test [1], B8 showed a Kd of 0.0649 nM, a koff of 2.7e-05 s⁻¹, a kon of 416000 M⁻¹ s⁻¹ and a t½ of 427 min.
